Earlier results as cited in publication PMC2679154.

Target: IGF-IR (Homo sapiens) (UniProt P08069)
UniProt P08069, sequence (P08069 31-736, chain 1 of 2): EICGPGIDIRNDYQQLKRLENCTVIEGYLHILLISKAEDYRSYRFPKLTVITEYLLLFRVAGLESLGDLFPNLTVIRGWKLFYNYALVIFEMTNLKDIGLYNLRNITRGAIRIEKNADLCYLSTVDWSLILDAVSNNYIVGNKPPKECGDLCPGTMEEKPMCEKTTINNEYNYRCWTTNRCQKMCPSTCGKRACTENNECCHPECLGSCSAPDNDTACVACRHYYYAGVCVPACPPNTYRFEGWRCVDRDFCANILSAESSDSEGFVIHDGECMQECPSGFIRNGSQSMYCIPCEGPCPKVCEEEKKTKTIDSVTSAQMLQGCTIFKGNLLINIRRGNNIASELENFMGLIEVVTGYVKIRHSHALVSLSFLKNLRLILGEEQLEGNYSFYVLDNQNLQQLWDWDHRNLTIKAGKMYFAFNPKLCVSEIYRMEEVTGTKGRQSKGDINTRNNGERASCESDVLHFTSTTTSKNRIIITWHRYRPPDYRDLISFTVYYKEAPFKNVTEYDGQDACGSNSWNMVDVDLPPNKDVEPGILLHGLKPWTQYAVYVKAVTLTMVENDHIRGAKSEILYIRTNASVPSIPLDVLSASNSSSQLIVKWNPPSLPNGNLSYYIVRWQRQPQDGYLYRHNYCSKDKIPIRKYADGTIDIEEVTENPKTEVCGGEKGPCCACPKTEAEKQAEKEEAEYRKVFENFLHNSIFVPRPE
UniProt P08069, sequence (P08069 741-935, chain 2 of 2): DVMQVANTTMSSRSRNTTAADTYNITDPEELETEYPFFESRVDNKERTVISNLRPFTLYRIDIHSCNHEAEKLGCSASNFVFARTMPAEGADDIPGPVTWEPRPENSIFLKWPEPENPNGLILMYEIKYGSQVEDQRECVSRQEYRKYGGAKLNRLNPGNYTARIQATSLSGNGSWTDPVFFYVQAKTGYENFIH

insulin (from UniProt P01308)
Kd: 100 nM
